How the values were obtained:
WDR5 [1] = biological target: WDR5 (UniProt P61964); assay: biotin-peptide streptavidin pull-down, anti-GST blot; details: reference: unmodified H3 peptide; sites T11
WDR5 [2] = biological target: WDR5 (UniProt P61964); assay: peptide pull-down, silver stain, MALDI-TOF identification; details: reference: unmodified H3 peptide; sites T11

binding against the reference (WDR5 [1]): stronger
binding against the reference (WDR5 [2]): stronger
Substance: histone H3 (synthetic tail peptides) 1-21 (from UniProt P68431) H3T11P peptide

— article PMC4075454
